Source: patent US20230220005A1, “S100A8-INHIBITING PEPTIDE AND DISEASE THERAPEUTIC AGENT CONTAINING SAME” (TOKYO WOMEN'S MEDICAL UNIVERSITY, priority 2020, published 2023)
Blank lines part the entries; values can stand above or below the substance they belong to. Ends that are not written are not given here.

Columns and labels:
[1] = test system: SW480 cells subcutaneous tumor; assay: Antitumor activity in SW480 xenograft model; assay type: in vivo; details: mouse, two weeks
Protocol: (§1) First, two weeks after transplantation of SW480 cells subcutaneously in a mouse, the size of the subcutaneous tumor was measured, and confirmed to be equivalent tumor size. The peptide was administered to the abdominal cavity at the indicated concentrations twice a week, and the size of the tumor was measured over time. After two weeks, the size of the subcutaneous tumor was measured, and the subcutaneous tumor was collected.
The divalent ILVIK was identified as an S100A8-inhibiting peptide candidate by chain length screening, and influence of the divalent ILVIK on mouse subcutaneous tumors was examined in the same manner as in Example 5 (FIG. 6). First, two weeks after transplantation of SW480 cells subcutaneously in a mouse, the size of the subcutaneous tumor is measured, and confirmed to be equivalent tumor size. The peptide was administered to the abdominal cavity at the indicated concentrations twice a week, and the size of the tumor was measured over time. After two weeks, the size of the subcutaneous tumor was measured, and the subcutaneous tumor was collected.
as §1, with “tetravalent ILVIK” for “peptide”, “concentrations (1 mg/kg, 5 mg/kg, 10 mg/kg)” for “concentrations”

[2] = target: T1, binding of S100A8 to TLR4/MD-2 complex (Homo sapiens, UniProt O00206+Q9Y6Y9); assay: Competition ELISA: binding of S100A8 to TLR4/MD-2 complex; details: for competitive activity in competition assay, divalent and tetravalent peptides: FIG. 8; for competitive inhibitory activity on binding of S100A8 to TLR4/MD-2 complex, candidate peptides: chain length screening candidates, FIG. 7(B)
T1 sequence (O00206 24-631 limits assumed): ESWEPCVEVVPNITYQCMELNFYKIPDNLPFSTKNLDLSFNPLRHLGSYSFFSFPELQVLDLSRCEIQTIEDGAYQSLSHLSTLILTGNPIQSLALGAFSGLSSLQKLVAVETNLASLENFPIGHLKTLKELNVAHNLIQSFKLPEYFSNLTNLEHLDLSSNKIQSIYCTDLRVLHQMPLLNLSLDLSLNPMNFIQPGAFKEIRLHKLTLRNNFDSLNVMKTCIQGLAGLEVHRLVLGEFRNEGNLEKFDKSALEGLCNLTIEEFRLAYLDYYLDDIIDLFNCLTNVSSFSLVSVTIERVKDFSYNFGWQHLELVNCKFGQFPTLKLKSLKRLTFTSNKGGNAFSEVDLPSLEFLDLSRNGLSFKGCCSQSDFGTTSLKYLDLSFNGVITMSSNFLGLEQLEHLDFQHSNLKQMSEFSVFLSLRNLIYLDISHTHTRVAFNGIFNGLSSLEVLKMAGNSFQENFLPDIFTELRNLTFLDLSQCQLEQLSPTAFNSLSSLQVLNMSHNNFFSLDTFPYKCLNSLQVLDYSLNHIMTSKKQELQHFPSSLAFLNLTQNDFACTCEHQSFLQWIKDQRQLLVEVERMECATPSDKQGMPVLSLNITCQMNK
T1 sequence (Q9Y6Y9 19-160): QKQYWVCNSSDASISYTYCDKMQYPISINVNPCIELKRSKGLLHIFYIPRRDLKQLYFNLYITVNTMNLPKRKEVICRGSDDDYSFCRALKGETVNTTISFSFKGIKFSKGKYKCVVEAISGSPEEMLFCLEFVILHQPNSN
Protocol: Pre-purified S100A8 protein was immobilized on an ELISA plate. Non-specific binding was blocked with blocking buffer in the same manner as in Example 1. Peptides #1 to #6 were added simultaneously with TLR4/MD-2, and the mixture was reacted. Each well was washed with PBS-Tween 20, then incubated with an anti-TLR4 antibody (Abcam) and an anti-rabbit IgG-HRP labeled antibody (GE Healthcare) subsequently, and finally a reaction with TMB as an HRP substrate was terminated with an equivalent of 1 N sulfuric acid. Bound TLR4/MD-2 was quantified by measuring the absorbance at OD 450 nm.
(§2) In order to identify an essential region in the Peptide3A5 sequence, a series of partial sequence peptides based on the amino acid sequence of Peptide3A5, which were obtained by deleting the amino acid from the amino terminal side or the carboxyl terminal side, were spot-synthesized as divalent peptides on a cellulose membrane sheet using the method of Patent Literature 1. Several kinds of affinity peptides with high affinity to TLR4/MD-2 were obtained by reacting the sheet with TLR4/MD-2 (FIG. 7A). Candidate peptides were subjected to a competition assay similar to Example 1 (FIG. 2).
A competition assay was performed using divalent ILVIK (SEQ ID NO. 2), divalent Peptide3A5 (SEQ ID NO. 1), and tetravalent ILVIK. The tetravalent ILVIK was also synthesized using the method of Patent Literature 1.

[3] = test system: IL-8 mRNA expression in human colorectal cancer SW480 cells; assay: IL-8 mRNA induction by S100A8 in SW480 cells; assay type: cell-based; details: SW480 cells pretreated with peptide, stimulated with S100A8 recombinant protein, after 5 hours; FIG. 4
Protocol: Human colorectal cancer SW480 cells express TLR4, and induce IL-8 by S100A8 stimulation. In order to verify inhibitory activity of peptides isolated so far, after pretreating divalent Peptide #3 or divalent Peptide3A5, the cells were stimulated with S100A8 recombinant protein, and the mRNA expression of IL-8 after 5 hours was analyzed. The divalent Peptide #3 and the divalent Peptide3A5 were prepared according to the method of Patent Literature 1 described above.

TLR4/MD-2 [4] = target: T2, TLR4/MD-2 (Homo sapiens, UniProt O00206+Q9Y6Y9); assay: ELISA: binding of TLR4/MD-2 to peptides immobilized on plate; details: for binding to TLR4/MD-2 of alanine-substituted peptides: alanine scanning, amino terminus acetylated, carboxyl terminus amidated, immobilized on ELISA plate, FIG. 3
T2 sequence (O00206 24-631 limits assumed): as the sequence (O00206 24-631 limits assumed) above
T2 sequence (Q9Y6Y9 19-160): as the sequence (Q9Y6Y9 19-160) above
Protocol: Furthermore, for the purpose of narrowing the binding region with the TLR4/MD-2 complex, a peptide of 10 amino acids in the carboxyl terminal amino acid sequence was synthesized. At this time, the sequence can be comprehensively analyzed by overlapping by five amino acids. The synthesized peptides were immobilized on an ELISA plate (Thermo Fisher Scientific Inc.; Maxisorp), and then non-specific binding was blocked with a blocking buffer. Each well was washed with PBS-Tween 20 and then incubated with a high-purity human TLR4/MD-2 recombinant protein, then each well was incubated with an anti-TLR4 antibody (Abcam) and an anti-rabbit IgG-HRP labeled antibody (GE Healthcare), and finally a reaction with TMB as an HRP substrate was terminated with an equivalent of 1 N sulfuric acid. The amount of bound TLR4/MD-2 was quantified by measuring the absorbance at OD 450 nm.
In addition, acetylation was introduced at the amino terminus of these peptides, and amidation modification was introduced at the carboxyl terminus. These 10 peptides were immobilized on an ELISA plate (Thermo Fisher Scientific Inc.; Maxisorp) to verify binding with TLR4/MD-2.

[5] = target: T1, binding of S100A8 to TLR4/MD-2 complex; assay: Competition by immunoprecipitation with anti-TLR4 antibody and Western blotting; details: 10 times the molar amount of peptide; S100A8 detected by Western blotting; FIG. 2B
Protocol: The TLR4/MD-2 complex and S100A8 were mixed in a tube. At this time, 10 times the molar amount of each of Peptides #1 to #6 was added, and immunoprecipitation was performed with an anti-TLR4 antibody. The immunoprecipitate was washed several times with a washing buffer, and the final pellet was electrophoresed by SDS-PAGE. Then, S100A8 and TLR4 were detected by Western blotting using an anti-S100A8 antibody and an anti-TLR4 antibody.

TLR4/MD-2 [6] = target: T2, TLR4/MD-2; assay: Chain length screening: divalent peptides spot-synthesized on cellulose membrane sheet reacted with TLR4/MD-2; assay type: binding; details: FIG. 7(A)
Source text: as §2

[7] = peptide to the abdominal cavity twice a week, FIG. 6, FIG. 9

Substance: divalent ILVIK: divalent peptide containing two ILVIK (SEQ ID NO. 2) sequences (also: divalent linkage of two copies (linker not given here))
development of subcutaneous tumor (tumor size) [1, 7]: suppressed the development of mouse subcutaneous tumor in a concentration-dependent manner
competitive activity in competition assay, divalent and tetravalent peptides [2]: almost similar competitive activity as the divalent Peptide3A5

Substance: divalent Peptide3A5: divalent peptide containing two Peptide3A5 (SEQ ID NO. 1) sequences, prepared according to the method of Patent Literature 1 (chain 1 FQEFAILVIK; chain 2 FQEFAILVIK; also: divalent linkage of two copies (linker not given here))
development of subcutaneous tumor (tumor size) [1, 7]: suppressed the development of subcutaneous tumor in mice in a concentration-dependent manner
competitive inhibitory activity, monovalent versus divalent ([2]; various concentrations added simultaneously with TLR4/MD-2 complex, FIG. 5): showed the competitive inhibitory activity at a lower concentration as compared with the monovalent type
expression of mRNA of IL-8 induced by S100A8 [3]: remarkably inhibited

Substance: Phe-Gln-Glu-Phe-Leu-Ile-Leu-Val-Ile-Lys (FQEFLILVIK) [Peptide #3]
competitive inhibitory activity on the binding of S100A8 to the TLR4/MD-2 complex (immunoprecipitation) [5]: had competitive inhibitory activity
competitive inhibitory activity on the binding between S100A8 and the TLR4/MD-2 complex (ELISA) ([2]; S100A8 immobilized, peptide added simultaneously with TLR4/MD-2, FIG. 2A): found to have competitive inhibitory activity
affinity for TLR4/MD-2 (amount of bound TLR4/MD-2, absorbance at OD 450 nm) (TLR4/MD-2 [4]; overlapping 10 amino acid peptides immobilized on ELISA plate, FIG. 1): high affinity for TLR4/MD-2

Substance: FQEFAILVIK [Peptide3A5]
binding to TLR4/MD-2 of alanine-substituted peptides (TLR4/MD-2 [4]): higher affinity for TLR4/MD-2 than Peptide #3

Substance: divalent Peptide #3: divalent peptide containing two Peptide #3 sequences, prepared according to the method of Patent Literature 1 (FQEFLILVIK)
expression of mRNA of IL-8 induced by S100A8 [3]: remarkably inhibited

Substance: tetravalent ILVIK: tetravalent peptide containing four ILVIK sequences, synthesized using the method of Patent Literature 1
development of subcutaneous tumor (tumor size) ([1]; 1 mg/kg, 5 mg/kg, 10 mg/kg to the abdominal cavity twice a week, FIG. 10): suppressed the development of mouse subcutaneous tumors in a concentration-dependent manner
competitive activity in competition assay, divalent and tetravalent peptides [2]: almost the same competitive activity as the divalent ILVIK

Second part, the substance after the results:

binding to TLR4/MD-2 of alanine-substituted peptides (TLR4/MD-2 [4]): reduced
Substance: Peptide3A7: Peptide #3 (SEQ ID NO: 13) with position 7 from the N-terminal side substituted with alanine; acetylated amino terminus, amidated carboxyl terminus (Ac-FQEFLIAVIK-NH2)

binding to TLR4/MD-2 of alanine-substituted peptides (TLR4/MD-2 [4]): reduced
Substance: Peptide3A10: Peptide #3 (SEQ ID NO: 13) with position 10 from the N-terminal side substituted with alanine; acetylated amino terminus, amidated carboxyl terminus (Ac-FQEFLILVIA-NH2)

binding to TLR4/MD-2 of alanine-substituted peptides (TLR4/MD-2 [4]): reduced
Substance: Peptide3A6: Peptide #3 (SEQ ID NO: 13) with position 6 from the N-terminal side substituted with alanine; acetylated amino terminus, amidated carboxyl terminus (Ac-FQEFLALVIK-NH2)

binding to TLR4/MD-2 of alanine-substituted peptides (TLR4/MD-2 [4]): reduced
Substance: Peptide3A8: Peptide #3 (SEQ ID NO: 13) with position 8 from the N-terminal side substituted with alanine; acetylated amino terminus, amidated carboxyl terminus (Ac-FQEFLILAIK-NH2)

affinity for TLR4/MD-2 of partial sequence peptides (TLR4/MD-2 [6]): high affinity
competitive inhibitory activity on binding of S100A8 to TLR4/MD-2 complex, candidate peptides [2]: competitive inhibitory activity
Substance: Gln-Glu-Phe-Ala-Ile-Leu-Val (QEFAILV) [SEQ ID NO: 4]

affinity for TLR4/MD-2 of partial sequence peptides (TLR4/MD-2 [6]): high affinity
competitive inhibitory activity on binding of S100A8 to TLR4/MD-2 complex, candidate peptides [2]: competitive inhibitory activity
Substance: Phe-Gln-Glu-Phe-Ala-Ile-Leu-Val-Ile (FQEFAILVI) [SEQ ID NO: 3]

affinity for TLR4/MD-2 of partial sequence peptides (TLR4/MD-2 [6]): high affinity
competitive inhibitory activity on binding of S100A8 to TLR4/MD-2 complex, candidate peptides [2]: competitive inhibitory activity
Substance: Ile-Leu-Val-Ile-Lys (ILVIK) [SEQ ID NO: 2]
